The series “SEC” concerns the molecule itself. The series can be described thus: SEC. On the technique in general: Size exclusion chromatography separates by hydrodynamic size, large species first.
The series “AUC” concerns the molecule itself. The series can be described thus: AUC.
The series “NMR titration” concerns the molecule itself. The experiment in a line: NMR titration.
The target in the next series is Ubiquitin (UniProt P0CG48 1-76). The experiment in a line: NMR titration.

B1: UBQLN2 450–624 P506A (domain or fragment)
chain: RAMQALMQIQQGLQTLATEAPGLIPSFTPGVGVGVLGTAIGPVGPVTPIGPIGPIVAFTPIGPIGPIGPTGPAAPPGSTGSGGPTGPTVSSAAPSETTSPTSESGPNQQFIQQMVQALAGANAPQLPNPEVRFQQQLEQLNAMGFLNREANLQALIATGGDINAAIERLLGSQPSW
For B1, the binding result in the series “SEC” is on record as “binds”.

B2: UBQLN2 450–624 P497L (domain or fragment)
chain: RAMQALMQIQQGLQTLATEAPGLIPSFTPGVGVGVLGTAIGPVGPVTLIGPIGPIVPFTPIGPIGPIGPTGPAAPPGSTGSGGPTGPTVSSAAPSETTSPTSESGPNQQFIQQMVQALAGANAPQLPNPEVRFQQQLEQLNAMGFLNREANLQALIATGGDINAAIERLLGSQPSW
On to B2, for which the binding result in “AUC” is reported as “binds”.

B3: UBQLN2 450–624 P509S (domain or fragment)
chain: RAMQALMQIQQGLQTLATEAPGLIPSFTPGVGVGVLGTAIGPVGPVTPIGPIGPIVPFTSIGPIGPIGPTGPAAPPGSTGSGGPTGPTVSSAAPSETTSPTSESGPNQQFIQQMVQALAGANAPQLPNPEVRFQQQLEQLNAMGFLNREANLQALIATGGDINAAIERLLGSQPSW
B3: the binding result in the series “NMR titration” was “binds”.

B4: UBQLN2 450–624 P497S (domain or fragment)
chain: RAMQALMQIQQGLQTLATEAPGLIPSFTPGVGVGVLGTAIGPVGPVTSIGPIGPIVPFTPIGPIGPIGPTGPAAPPGSTGSGGPTGPTVSSAAPSETTSPTSESGPNQQFIQQMVQALAGANAPQLPNPEVRFQQQLEQLNAMGFLNREANLQALIATGGDINAAIERLLGSQPSW
With B4, in the series “AUC”, the binding result is reported as “binds”.

B5: UBQLN2 450–624 P500S (domain or fragment)
chain: RAMQALMQIQQGLQTLATEAPGLIPSFTPGVGVGVLGTAIGPVGPVTPIGSIGPIVPFTPIGPIGPIGPTGPAAPPGSTGSGGPTGPTVSSAAPSETTSPTSESGPNQQFIQQMVQALAGANAPQLPNPEVRFQQQLEQLNAMGFLNREANLQALIATGGDINAAIERLLGSQPSW
With B5, the binding result in the series “NMR titration” was “binds”.

B6: UBQLN2 450–624 P506S (domain or fragment)
chain: RAMQALMQIQQGLQTLATEAPGLIPSFTPGVGVGVLGTAIGPVGPVTPIGPIGPIVSFTPIGPIGPIGPTGPAAPPGSTGSGGPTGPTVSSAAPSETTSPTSESGPNQQFIQQMVQALAGANAPQLPNPEVRFQQQLEQLNAMGFLNREANLQALIATGGDINAAIERLLGSQPSW
In the case of B6, the binding result in “SEC” was “binds”.

B7: UBQLN2 450–624 (domain or fragment)
chain: RAMQALMQIQQGLQTLATEAPGLIPSFTPGVGVGVLGTAIGPVGPVTPIGPIGPIVPFTPIGPIGPIGPTGPAAPPGSTGSGGPTGPTVSSAAPSETTSPTSESGPNQQFIQQMVQALAGANAPQLPNPEVRFQQQLEQLNAMGFLNREANLQALIATGGDINAAIERLLGSQPSW
For B7, the binding result with Ubiquitin is listed as “binds”.

B8: UBQLN2 450–624 T487I (domain or fragment)
chain: RAMQALMQIQQGLQTLATEAPGLIPSFTPGVGVGVLGIAIGPVGPVTPIGPIGPIVPFTPIGPIGPIGPTGPAAPPGSTGSGGPTGPTVSSAAPSETTSPTSESGPNQQFIQQMVQALAGANAPQLPNPEVRFQQQLEQLNAMGFLNREANLQALIATGGDINAAIERLLGSQPSW
Regarding B8, the binding result in “AUC” is reported as “binds”.

B9: UBQLN2 450–624 P497H (domain or fragment)
chain: RAMQALMQIQQGLQTLATEAPGLIPSFTPGVGVGVLGTAIGPVGPVTHIGPIGPIVPFTPIGPIGPIGPTGPAAPPGSTGSGGPTGPTVSSAAPSETTSPTSESGPNQQFIQQMVQALAGANAPQLPNPEVRFQQQLEQLNAMGFLNREANLQALIATGGDINAAIERLLGSQPSW
For B9, the binding result in the series “SEC” was “binds”.

B10: UBQLN2 450–624 P506T (domain or fragment)
chain: RAMQALMQIQQGLQTLATEAPGLIPSFTPGVGVGVLGTAIGPVGPVTPIGPIGPIVTFTPIGPIGPIGPTGPAAPPGSTGSGGPTGPTVSSAAPSETTSPTSESGPNQQFIQQMVQALAGANAPQLPNPEVRFQQQLEQLNAMGFLNREANLQALIATGGDINAAIERLLGSQPSW
For the molecule B10, the binding result in “SEC” is “binds”.

B11: UBQLN2 450–624 A488T (domain or fragment)
chain: RAMQALMQIQQGLQTLATEAPGLIPSFTPGVGVGVLGTTIGPVGPVTPIGPIGPIVPFTPIGPIGPIGPTGPAAPPGSTGSGGPTGPTVSSAAPSETTSPTSESGPNQQFIQQMVQALAGANAPQLPNPEVRFQQQLEQLNAMGFLNREANLQALIATGGDINAAIERLLGSQPSW
For the molecule B11, the binding result in “SEC” is recorded as “binds”.

The values are drawn from PMC6551275 (Structure (London, England : 1993), 2019).
